The results in this text go back to EP1724347A2.

Where no end group is shown, it is not given here.

What is called Kd is the constant that tells how readily two partners part at equilibrium. Read a high Kd as lower affinity.

B1: phosphorylated PPKID3 (designed binder)
chain: GASPHTSSGDDAPVRRLSFFDILLDLYLDAPC(acetamidofluorescein)
modifications: also: phosphorylated, site not given here
B2: phosphorylated PPKID2 (designed binder)
chain: GMSRVTPGGDDAPVRRLSFFYILRDLYLDAPC(acetamidofluorescein)
modifications: also: phosphorylated, site not given here
B3: phosphorylated PPKID1 (designed binder)
chain: GASDMTYWGDDAPVRRLSFFYILLDLYLDAPC(acetamidofluorescein)
modifications: also: phosphorylated, site not given here
B4: unphosphorylated PPKID3 (designed binder)
chain: GASPHTSSGDDAPVRRLSFFDILLDLYLDAPC(acetamidofluorescein)
B5: unphosphorylated PPKID2 (designed binder)
chain: GMSRVTPGGDDAPVRRLSFFYILRDLYLDAPC(acetamidofluorescein)

The target of this assay is GST-KIX. Description: fluorescence polarization.
Sequence of GST-KIX (P45481 586-665): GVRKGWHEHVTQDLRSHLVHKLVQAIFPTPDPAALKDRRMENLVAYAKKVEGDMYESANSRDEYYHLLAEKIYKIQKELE
In the case of B1, the equilibrium dissociation constant (Kd) worked out at 73 nM.

Consider B2, for which the Kd worked out at 280 nM.

Regarding B3, the Kd is 31 nM.

In turn, B4 came in with a Kd of 681 nM.

In turn, B5 registered a Kd of 7600 nM.
